Laboratory results published in PMC8442874.

Molecular target: Soc-SpyCatcher fusion protein (displayed on T4 phage: T4-SpyCatcher phage) (bacteriophage T4)
Assay: co-sedimentation

S-ecto-6P-SpyTagged trimer (prefusion-stabilized hexa-Pro SARS-CoV-2 spike ectodomain with C-terminal SpyTag) (from UniProt P0DTC2 14-1208) (domain or fragment)
copies per capsid (S-trimers per phage capsid): 100
